Experimental data: publication PMC4947123

Target: Ubiquitin (Ub)
Assay: biotin-streptavidin pull-down and mass spectrometry
Details: N2A cells, triplicate experiments, S0: 1.5, FDR: 0.01, read off a plot

**Q.** “bioGFP-tagged OPTN wild-type (from UniProt Q96CV9) E478G” was tested. Which other: Welch's t-test difference (logarithmized ratio of relative protein intensities, WT vs mutant) did it give?
**A.** Its other: Welch's t-test difference (logarithmized ratio of relative protein intensities, WT vs mutant) is 4.1.
